Consider 21 sequences from the DeepSol protein solubility set.

The data set is described as follows: soluble on expression in E. coli; label from the status in PepcDB or PDB records.
“MESSKKMDSPGALQTNPPLKLHTDRSAGTPVFVPEQGGYKEKFVKTVEDKYKCEKCHLVLCSPKQTECGHRFCESCMAALLSSSSPKCTACQESIVKDKVFKDNCCKREILALQIYCRNESRGCAEQLTLGHLLVHLKNDCHFEELPCVRPDCKEKVLRKDLRDHVEKACKYREATCSHCKSQVPMIALQVSLLQNESVEKNKSIQSLHNQICSFEIEIERQKEMLRNNESKILHLQRVIDSQAEKLKELDKEIRPFRQNWEEADSMKSSVESLQNRVTELESVDKSAGQVARNTGLLESQLSRHDQMLSVHDIRLADMDLRFQVLETASYNGVLIWKIRDYNRRKQEAVMGKTLSLYSQPFYTGYFGYKMCARVYLNGDGMGKGTHLSLFFVIMRGEYDALLPWPFKQKVTLMLMDQGSSRRHLGDAFKPDPNSSSFKKPTGEMNIASGCPVFVAQTVLENGTYIKDDTIFIKVIVDTSDLPDP”: the “soluble on expression in E. coli” value is given as “soluble”.
As to “MRNFDLIRLTEAQWHDRESAHQLRADRLTADHMKRRRAGISHPVYDFLFEYYPVRVAHMKKWHPGVGVGIEGNPPHSRWKGYTTIDDVTVVDVEALKKKRSSTLHYVSNLLKQTQLNPTHFDCFGLHEWAMVYQTSQPRHALPLRLGAQGSNKVVESHNIRCTHFDAFRFFTEPAVPLNFQVLTRENQPSCEQPGCLHAMMDLYKWSAKLGPLIPGDLWLDTFELAWDCRVLDMEASPYDCTDYGLGIVPIETAEGKAEYVRRQRELSERGQLLRQRLVAELDRIDRFTLTS”, the “soluble on expression in E. coli” value was “not soluble”.
For “MGSDKIHHHHHHMILSKTGIRHKEDLVPPANGVDVGIIKIGDGRVMSVTTDPFYFDPVFGYEDSAWFAYHILASDLLTSGANPDYMTVDLNLPLSMTDEEISRMWNAFTEEAARFGTSIITGHTARYAGTSFPMIGGITAMGFIGEDEYVTSAMARPGDKVVLTKTPAIEAAALLTRLFPGTIKAKLGDELFSYGVDLFRKLTTVHESLVCKRFGLRTRVTAMHDVTEGGLLGALFEIADSSGNGIRIHEDSIKVDDYVKRVCSIFSIDPLMAISEGALLITVKPDHAEDLVSSLKANGIDANVIGEMTADPSERIIVGREKRTIGPPQKDPFWTAVEFGISEDWK”, the “soluble on expression in E. coli” value was “not soluble”.
To “MQLGDKQLVVQLACANQQRHNTNLPNSASAIAGIDLSQGAGRATEILCLMNMVTEDELKADDEYEEILEDVRDECSKYGIVRSLEIPRPYEDHPVPGVGKVFVEFASTSDCQRAQAALTGRKFANRTVVTSYYDVDKYHNRQF” belongs “not soluble”; to “MAHHHHHHMGTLEAQTQGPGSMNLDNVTGGDNVPKEINVIIEISQNSCPVKYEFDKEKNLFCVDRFLPTSMYYPCNYGFIPHTCAGDGDPVDVLVASRFPVMSGAVIRARPVGVLVMHDESGEDVKILAVPTHKVDQYYNNIKDYSDFPVSFLNSISHFFTFYKKLEEDKFVSVEGWKDVTVAEKLILSALIK”, “soluble”; to “MHIHILGICGTFMGGVAMLARQLGHKVTGSDANVYPPMSTMLEAQGIEIIEGFDPVQLEPKPDLVVIGNAMSRGNPCVEYVLNHNLRYTSGPQWLQDFLLHDRWVIAVSGTHGKTTTSSMIAWVLEHCGYQPGFLVGGVLGNFGISARLGESMFFVVEADEYDSAFFDKRSKFVHYHPRTLVMNNLEFDHADIFDNLEAIKRQFHHLVRTVPGNGRILAPKQDEALADVLQRGCWSETEFSGEQGEWQAEKITADGSQFHVLLKGERVGQVNWSLVGDHNVSNALMAIAAARHVGVAPELACEALGLFVNTKRRLELKGEINGVTVYDDFAHHPTAIELTLGGLRNKVGDKKIIAVLEPRSATMKLGVHKETLAASLHSADSVYLYQPSNIPWSVEEVAKQCQQPAQVSANMDEFVAMIAKEAQAGDQILVMSNGGFEGIHGKLLAALQQK”, “not soluble”.
To “MNTIAFKEIFLPIRPSIRAVCHAFLRDDEEAEDATQEVYLRLWEARMRLDGLDNPRAYAIRIARNYCLNLIRKASNSPYPTSLEAAEVQEVSETHGGEADLLLSEQIGRLRQWLRGVSELYRTVFAMSHFRRLSNGEIAERLGLTEGNVRVILCRLRREAKEVMKDDA” belongs “not soluble”.
To “MRALRLLTRQEYQNTVNDLLGLSENLVHLLPEENRVDGFDNNVATNLVTSIRLEAFLTQAEALAAKAVQQNWNALLPCTQQDLEHHHHHH” belongs “not soluble”.
On to “MGSDKIHHHHHHMLDQNQTPLIDGIKACIARPHAAFYTPGHKRGRGIAQPLADLLGEAVFGADLTELANLDNLSAPQGVIQEAQRLAAAAFGAAQTWFLVNGSTCGVEAAIMATCRPGDKIILPRNVHSSAIAGLILSGAIPIFIHPEYDQVLDIAHSMTPEAVKAALQQHPDAKAVLAVYPTYYGVCGDLEAIAQITHQYNIPLLVDEAHGAHFTFHPELPTPALAAGADLTVQSIHKVLGAMTQASMLHIQGDRINAVRVSQALQLLQSTSPSYVLLASLDAARQQMALCGKQLMSRTLQLANEARERISQIPGLSVLQPPTMTPSSGFTTLDKTRLTITVSGLGLTGFAAEEILDEQLGVTAEFATFKHLTFIISLGNTTADIEQLVQGFTTLAETTPPAKALVNPRVNSNLEYFSEISPRDAFFADSETLSIEQARDRICAEIICPYPPGIPVIMPGEVITKPAIEYLQHIQSSGGFITGCADTSLSTLKVLVIGH”, for which the “soluble on expression in E. coli” value is recorded as “not soluble”.
On to “MAHHHHHHMDSMPPLSSPCLVEQEARQVPAGCFTRAVYALHSTDNEQTETAALTVRKLIKEEDQGMMRGAASSQIPLKRKGSKTNSAKSKYGKSGKLGRSSVVSWNLKSAPKITKAAGVTSANNNENREYVSPIVWCPVTPLMDNIYRSKWRQPMGRASSQAIDNEKNICIDETNVGENDLCMCKDVEAQFVLRGGERIYTLHYVTPLSMKRRETNEENSMCYGVLPVIRICVNPPVTP”, for which the “soluble on expression in E. coli” value is “not soluble”.
Next, “MKLKVVYRKVSDYICYDLKEIVLPSSLPDPPHVVKRRKLTWHERFLVLKEASRLYAASWVRDIGPELRPNDYKKQGDAEPKKQAKEAENEPSVLEDLAVAARGGMETLRPALHRLYMTRASNYKDALTSFIKGYHEGLQQVMQNKAESEAPADEADKSKKTT”: “soluble”.
Regarding “MGSDKIHHHHHHMLSNLVSEFPQHEPRPANAPRALEGIRVVDFTHFIAGPFATMMLADMGAEVIKIEAPGRGDEFRYYPPAHPQDESIGAPYLWANRNKRSIALDLKHEDGRRIARELIATADVVAENFSTGVMERLGLGYEACRESNPELIYCSVSAYGREGAFADRLGFDPVAQAESGFVSMNGYPDRLGVRALSPVMDISTAMMASNAILGALVARERSGKGQAVEVSLFDNAVLMTGYATVQHLFTGDEPQRHGNTSPDTCPSGVFKASDGAFYINCGNNKIFHRLASQVLEMPELAADPVLADRNGRIARRDELFRILDEAFIRHPWAYWQQRMRAASIPCGEVRSVGEALRSAEARERKLVSRLEHPDLGWLPNISLPFRFSETPMEDPSPAPRIGEHSRDILTHVLGYEDDSASALLDSGVVYSSVEKARAG”, the “soluble on expression in E. coli” value was “not soluble”.
To “MPFVPVAALKDYVGKDLGHSEWLTIDQERVDQFAECTGDHQFIHVDPEKAAKTPFGGTIAHGFLSLSLIPKLMEGLLVLPEGLKMAVNYGLDTVRFIQPVRVGSRVRLGLTLLDVNEKNPGQWLIKARATLEIEGQEKPAYIAETLSLCFV” belongs “not soluble”; to “SLKEVLESKLNDRPDANVLIGLGRNISGEAVLAELNKMPHLLVAGATGSGKSVCVNGIITSILMRAKPHEVKMMMIDPKMVELNVYNGIPHLLAPVVTDPKKASQALKKVVNEMERRYELFSHTGTRNIEGYNDYIKRANNEEGAKQPELPYIVVIVDELADLMMVASSDVEDSITRLSQMARAAGIHLIIATQRPSV”, “not soluble”; to “MFGIDGLEFLVILLVLIVVVGPKDLPKMLKTMARAIAYVRSTANEFRHQFDDAIKQAELDDLQKTLSDMNDFNPDKKLTGILNPMQDIRGDILNNFDVNTTHHKLEKDQENFECNENKTNEDLDVPVDAHSSGSVFVTSKDKESAS”, “not soluble”.
To “MSLKLKIADIAMRTGLSSSTVSRVLAGKANTSYRAREKVLACARELGVMDGMASGRMLLNNLVIFAPQRAFDERTDIFYFRVIQSISKALSHYEVRLRYCALDEFDSTPSKFLARMNEAETQAAILLGIDDPHIHDLAADFSKPCVMINCHDRRMRLPTVAPDHKNIGAFASHFLFEMGHRRVMNIMCLRRYTMELRLAGIKEAWERQNQNFKDDRDLLTINSFSAKEAEEKVGAWLDMTEKSMLPTAFLASGDFIAAGIINALKKRNIRVPQDVSVMSIDGFNLAAIEDVPLTAVHVPRDELGTEAVHMLQQRLVRPDATVGALLLYGKLVIRESVREGHHHHHH” belongs “not soluble”; to “MFKRVHLIVLDSVGIGEAPDAEKFGDVGSDTLGHIAKEAGLTIPHLEKLGLGTIAPLTGVKAVADHDGYATKLEEISVGKDTMTGHWEIMGLNIKKPFRVFPNGFPEELLKQIEDFSGRKVVCNKPYSGTAVIDDYGEHQMKTGDLIVYTSADPVLQIAAHEDIIPLEELYKICQYVRDITKDEPYMIGRIIARPYVGEPGNFTRTSNRHDYALDPFGHTVLDSLKENGNDVIAVGKINDIFNGQGITEAIRTKSNMDGVDQLLTVMNKEFTGLSFTNLVDFDALYGHRRDVKGYAKAIEDFDGRLPEIMAAMAEDDLLLITADHGNDPTFPGTDHTREYVPLLAYSKKMTKQGSLPQGFYSDISATIAENFEVPATENGQSFLNQLQ”, “not soluble”; to “MSLYLITNRKLCSEERYLEVIKESILSGVENIIIREKDLEYQELRKLYMKIKTKINCIDFQEQISDESLKTNINQKECRNKFKVNFIINSNIEFFEKVDCQGIHLPFKLFLNLIENKYNFNENKILGLSLHKVEEVDYLEKLIRNQNIKIDYITLSHIYETKCKEGLNPKGIELLKEAKKITDIKIIALGGILPSNVKETLKYCDDFAIMSTIMRSKDIKKTISNYNEKLNEGHHHHHH”, “not soluble”.
Regarding “MIKASLVFFAFLALASGRRHHYDYYDCEPERGPRGREGREGPRGAQGAPGPNGTGFFWPGTCEQSDCPDGWISVNRKINNDVEKKWCINMFWNQATNDLYKTSEKVCNSYGGVMTGFKDKGEFISVFALLKNRFPNIKPVSQVMIGARRLETCASISNFGNCTITKGTKWTDLVMSIDSFFNELQQSARFSPLKKCIVANPTNLKLYVANCNVLESDYPQDLFMCGRFAPCKK”, the “soluble on expression in E. coli” value is “not soluble”.
To “MSAACWEEPWGLPGGFAKRVLVTGGAGFIASHMIVSLVEDYPNYMIINLDKLDYCASLKNLETISNKQNYKFIQGDICDSHFVKLLFETEKIDIVLHFAAQTHVDLSFVRAFEFTYVNVYGTHVLVSAAHEARVEKFIYVSTDEVYGGSLDKEFDESSPKQPTNPYASSKAAAECFVQSYWEQYKFPVVITRSSNVYGPHQYPEKVIPKFISLLQHNRKCCIHGSGLQTRNFLYATDVVEAFLTVLKKGKPGEIYNIGTNFEMSVVQLAKELIQLIKETNSESEMENWVDYVNDRPTNDMRYPMKSEKIHGLGWRPKVPWKEGIKKTIEWYRENFHNWKNVEKALEPFPV” belongs “soluble”; to “MKNIIIIGANGFTGRQILNDLSSKAQYKVTGCSLHPDILPKNGGNYHFITTDIRDEAVVKQLFKDVQPDVVINCSALSVPDYCETHHEEAWLTNVTAVEQLAHLCESYKSRFIHLSTDFVFDGKIDEKSGQLYTEKSLPAPVNYYGFTKWKGEEKVTEICSNYAIARVEIVYGKALPGQHGNIVQLVMNRLNAGQEIRVVSDQWRTPTYVGDVSAGVQHLVENAANGIFHICGEECLTIAEIAFQVADYMKLDRSLVHPATTEEMQEATPRPRFSGMSIAKARTILGYQPRKLKDILMEWKH”, “not soluble”.
